From the DeepSol protein solubility set

Test: soluble on expression in E. coli; label from the status in PepcDB or PDB records

Sequence | soluble on expression in E. coli
MAHHHHHHMAHGAAQCTLAAPGCVYLTPEQEEQLVDRLYTQSLLQKEATLAELDARYYPVTASQTISQETLQKSVQRQVDVEMERRQQRRKEMDAMAVAKAMGHASGSRAAASKKTVTAEETDVSVRRLYDDALAQKKARKAESERLYAFHPEDLKSAKMSKAALQESVNRMSKPKKTEFAVAEVNKIYGL | soluble
MGSDKIHHHHHHMKFSIDRDALLKPLQLVSGAVERRHNLPILANLLVEVSGHSLKMTGTDLEVELVGEATVHGDVQEGRTTVPAKKLLDIVKSLPEQTEIKVEQQENKWLLRCGRSRFSLATLPAEEYPNVEAFRPDIEFTLKQGTLKSLIDSTQFSMANQDVRYYLNGLLIETEGNVLRAVATDGHRLALSHRMIEASLPEKQVIVPRKGVVELSRLLDAEDQDITLAIGESAIRATTATAVFTSKLVDGRFPDYRRVLPKGGDKIVIASRNQLKQALLRASILSNEKFRGVRILLEDGLLKITANNPEQEEAEEIIDVDYNSTTLEIGFNVSYLLDVLNSLRSDEVRVTLIDSNSSALIENHVEEDSMYVVMPMRL | not soluble
MGSDKIHHHHHHMSSDPTSGAAITVEGLKKVFRIYERPRDRILQLILPGKRKFYREFQALDDVSFTVQKGQAVGIIGRNGSGKSTLLQMICGILHPTAGKVSCSGRVAALLELGAGFNPDFTGRENVYMNATLLGLTTAAVDERMDDILAFAEIGDFIDHPVKTYSSGMFVRLAFAVMAHVDAEILIIDEALAVGDAAFGQKCMRFLRRFRETGTILFVSHDTAAVIGLCDRAVWLDRGKMIIEGDAKTVCEAYYGHLFGGTVETPPEKTVEAITPSPAPEGPRPKVRAEDWVDGRREWINHSSLRNDIEVFTFDPSGTDFGAGGAEIEDVRLTDDDGHPYAWIVGGEPTRLRVTVRVRDELRSPIIGFFVKDRLGQTLFGDNTFMNEKKLSKPALPGQILEANFRFPMPILPPGTYSIAVAVADGTQTDHVQHHWLHDAVMVKSHVSHATAGLVGIPMFEVRFECHDPVASPSSSMDKVGIVD | not soluble
MGLQTYNAKRSFDKTPEPKGTKAEKPGSSFVIQKHDARRLHYDFRLEMDGVLKSWAVTRGPSLDPEDKRLAVHVEDHPLSYGDFEGVIPKGQYGGGTVIVWDRGIWQPIGDAGKGYRKGHLEFELEGEKLKGRWHLVRMHGKPGESRENWLLIKGDDLEHHHHHH | not soluble
MQMLDRLESEILADRVSEESRRWLASCGLTVEQMKNQMDPVYTPARKIHLYHCDHRGLPLALISTEGATAWCAEYDEWGNLLSDENPHHLQQLIRLPGQQYDEESGLYYNRHRYYDPLLGRYITQDPIGLKGGWNFYQYPLNPVINVDPQGLVDINLYPESDLIHSVADEINIPGVFTIGGHGTPTSIESATRSIMTAKDLAYLIKFDGNYKDGMTVWLFSCNTGKGQNSFAS | soluble
MEERMEMISERPKESMYSWNKTAEKSDFEAVEALMSMSCSWKSDFKKYVENRPVTPVSDLSEEENLLPGTPDFHTIPAFCLTPPYSPSDFEPSQVSNLMAPAPSTVHFKSLSDTAKPHIAAPFKEEEKSPVSAPKLPKAQATSVIRHTADAQLCNHQTCPMKAASILNYQNNSFRRRTHLNVEAARKNIPCAAVSPNRSKCERNTVADVDEKASAALYDFSVPSSETVICRSQPAPVSPQQKSVLVSPPAVSAGGVPPMPVICQMVPLPANNPVVTTVVPSTPPSQPPAVCPPVVFMGTQVPKGAVMFVVPQPVVQSSKPPVVSPNGTRLSPIAPAPGFSPSAAKVTPQIDSSRIRSHICSHPGCGKTYFKSSHLKAHTRTHTGEKPFSCSWKGCERRFARSDELSRHRRTHTGEKKFACPMCDRRFMRSDHLTKHARRHLSAKKLPNWQMEVSKLNDIALPPTPAPTQ | soluble
EYSYQYNLRVEPGVSHQRANIGIDYQGMDWIIGPNYTAEQARIILRLDDQTRYVLQPEKRHYPVRVMNMTEPAILSLWHGDYYLTLGDKVGTNAYAIKVQ | not soluble
MRKAAALSLLVLVILSTTLAGCNFGKGSNEEDSKGTNLKLPCSIVSTISGEDVLYYEIEGDSLKKLDLDLKGHMEVYSEELGLAVYREFADKGTNLIITNGVKEHKISVEGNIEELIISPKGTKLLYRYNSGDKIGYKVLDLQNFKEFDFNENLAISGENVKFVNEDQLILYGVDLEKRQSGLYIYNIKDGSYTLEKQIVKAFIDYIDLVEDQVVLYTQSSIDGKKNCYIYNLDSKKESVISNEVGEIESLCKIGNVVYFIGTKGEGLRSLYSIDITNNKLDRLVYDFPKNISEKSKLIVVGDNIYFLGFNDSKEKNALYRYNLKDKSIKLIDSNKGQYIIIKMAGDPLEHHHHHH | not soluble
MLLDFPHGQFGFTNSCIIAVIWLSLSPTLNRGQLNLDRFKFWLPTSQLLVLDVCLFDAFALEHHHHHH | not soluble
